The record followed here is US20240059759A1 (BIGHAT BIOSCIENCES, published 2024).

Positions count from the first letter of the chain named. Names and notes keep the numbering of the source. Bounds are passed on as bounds.

Assay [1] addresses T1, SARS-CoV-1 RBD (SARS-CoV-1, UniProt P59594 306-527).
For assay [2], the target named is T1, SARS-CoV-1 RBD. The source holds these as a separate data set.

B1: VHH-72(S57G) (VHH)
VHH: QVQLQESGGGLVQAGGSLRLSCAASGRTFSEYAMGWFRQAPGKEREFVATISWSGGGTYYTDSVKGRFTISRDNAKNTVYLQMNSLKPDDTAVYYCAAAGLGTVVSEWDYDYDYWGQGTQVTVSS
For B1, the “Rel. EC50 - ELISA” value in assay [1] is 0.3 relative to WT.

B2: VHH-72 (S57A) (VHH)
VHH: B1 VHH with G57A
Consider B2, for which, in assay [1], the “Rel. EC50 - ELISA” value was 0.43 relative to WT.

B3: VHH-72 (S57Y) (VHH)
VHH: B1 VHH with G57Y
As for B3, in assay [2], the EC50 was over 10 µg/mL.
